# Experimental data: US20260098102A1 (NATIONAL UNIVERSITY CORPORATION KOBE UNIVERSITY, published 2026)
# T1: monkey SIRPA protein (cynomolgus monkey, UniProt P78324 31-504 (human entry))
# T1 construct: Expressed on 293α cells from pcDNA3.2 V5-DEST or pFLAG V5-DEST vectors; also called cynomolgus monkey SIRPA; cSIRPA
# T1 chain: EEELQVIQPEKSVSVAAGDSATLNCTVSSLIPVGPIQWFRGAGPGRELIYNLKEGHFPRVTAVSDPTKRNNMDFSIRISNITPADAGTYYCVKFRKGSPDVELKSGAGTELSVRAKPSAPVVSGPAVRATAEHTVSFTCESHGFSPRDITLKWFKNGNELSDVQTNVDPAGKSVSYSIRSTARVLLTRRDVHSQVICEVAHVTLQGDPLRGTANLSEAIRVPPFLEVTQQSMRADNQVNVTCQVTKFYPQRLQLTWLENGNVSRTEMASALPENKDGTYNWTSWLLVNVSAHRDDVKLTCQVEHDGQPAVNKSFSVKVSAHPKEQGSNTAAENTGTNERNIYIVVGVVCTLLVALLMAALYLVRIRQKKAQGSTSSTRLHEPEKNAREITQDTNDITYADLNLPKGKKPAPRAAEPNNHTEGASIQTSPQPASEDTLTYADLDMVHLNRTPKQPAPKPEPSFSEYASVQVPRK
# Columns and labels:
# monkey SIRPA protein = biological target: T1, monkey SIRPA protein; assay: cell-based ELISA on 293α cells expressing FLAG-tagged monkey SIRPA; Abs 490 normalized to FLAG tag
# SIRPA_V1_IgV [1] = biological target: T2, SIRPA_V1_IgV (human, UniProt P78324 31-149); assay: SPR Biacore T200, antibody captured, SIRPA_V1_IgV as analyte, 1:1 model
# T2 construct: Secreted recombinant protein from FreeStyle 293F cells
# Description: The dissociation constants of the cD13, cF44, and cF63 prepared in Example 4 against the human SIRPA_V1_IgV prepared in Example 1 were determined by a capture method comprising capturing a human chimeric antibody as a ligand and measuring an antigen as an analyte, using Biacore T200 (GE Healthcare Bioscience Corp.). HBS-EP+ (GE Healthcare Bioscience Corp.) was used as a running buffer, and CM5 (GE Healthcare Bioscience Corp.) was used as a sensor chip. In an amount of 1 μg/mL human chimeric antibody was added onto a chip at a rate of 10 μL/min for 60 seconds, a serially diluted solution of human SIRPA protein as an antigen (0.5 to 8 μg/mL) was added at a flow rate of 30 μL/min for 120 seconds, and the dissociation phase continued to be monitored for 600 seconds. As a regenerant, 3 M magnesium chloride (GE Healthcare Bioscience Corp.) was added at a flow rate of 20 μL/min for 30 seconds. For data analysis, the binding rate constant (ka), dissociation rate constant (kd), and dissociation constant (KD; KD=kd/ka) were calculated using a 1:1 binding model.
# human SIRPA_V2 protein = biological target: T3, human SIRPA_V2 protein (human, UniProt P78324 31-504); assay: blocking cell-based ELISA: peroxidase-labeled CD47-Fc (10,000 ng/mL) on 293α cells expressing SIRPA_V2; y axis = CD47-Fc signal in % of no antibody [ii]
# T3 construct: Expressed on 293α cells from pcDNA3.2 V5-DEST or pFLAG V5-DEST (FLAG-tagged) vectors; also called human SIRPA Variant 2; ECD variant (full-length, amino acids 1 to 504)
# SIRPA_V1_IgV [2] = biological target: T2, SIRPA_V1_IgV; assay: SPR Biacore T200, antibody captured on anti-human IgG (Fc), SIRPA_V1_IgV as analyte (0.25 to 16 nM), 1:1 model
# Description: The dissociation constants were measured by a capture method comprising capturing each antibody as a ligand to an Anti-Human IgG (Fc) antibody immobilized using Human Antibody Capture Kit (GE Healthcare Bioscience Corp.) and measuring an antigen as an analyte, using Biacore T200 (GE Healthcare Bioscience Corp.). HBS-EP+ (GE Healthcare Bioscience Corp.) was used as a running buffer, and CM5 (GE Healthcare Bioscience Corp.) was used as a sensor chip. Onto the chip, 2 μg/mL of various antibodies were added at 10 μL/min for 30 seconds, then a serially diluted solution (0.25 to 16 nM) of the human SIRPA protein as an antigen was added at a flow rate of 30 μL/min for 120 seconds, and subsequently the dissociation phase for 600 seconds was monitored. As a regenerant, 3 M magnesium chloride (GE Healthcare Bioscience Corp.) was added at a flow rate of 20 μL/min for 30 seconds. For data analysis, a binding rate constant (ka), a dissociation rate constant (kd), and a dissociation constant (KD; KD=kd/ka) were calculated using a 1:1 binding model.
# T2 sequence (P78324 other isoform, or with tags, fused parts or gaps limits assumed): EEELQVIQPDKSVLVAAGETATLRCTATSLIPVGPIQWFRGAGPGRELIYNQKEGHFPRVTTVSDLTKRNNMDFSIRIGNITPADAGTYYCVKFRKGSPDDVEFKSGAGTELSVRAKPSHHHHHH
Binder,EC50 (read off the curve) (monkey SIRPA protein),Kd (SIRPA_V1_IgV [1]),IC50 (read off the curve) (human SIRPA_V2 protein),Kd (SIRPA_V1_IgV [2])
"human chimeric anti-SIRPA antibody cD13 (antibody, human IgG4 S228P, kappa, F234A L235A, V domains shown, Human IgG4proFALA heavy chain, human kappa light chain; also called cD13 (IgG4pf); human chimeric antibody D13) VH: EVQLVESGGGLVQPGRSLKLSCLASGFTFSDYGMIWVRQAPGKGLEWVASISSSSSYIYYADTVKGRFTISRENAKNTLFLHMTSLRSEDTALYYCARRYYGFNYPFDYWGQGVMVTVSS VL: DTVLTQSPALAVSLGQRVTISCGASKSVRTYMHWYQQKSGQQPKLLIYSASNLEAGVPSRFSGSGSGTDFTLTIDPVEADDIANYYCQQSNEPPYTFGAGTKLELKR",~0.1 mg/L,0.0811 nM,~0.3 mg/L,–
"humanized anti-SIRPA antibody hD13_H1L3 (antibody, human IgG4 S228P, kappa, F234A L235A, V domains shown, hH1 heavy chain (IgG4proFALA) and hL3 kappa light chain; also called hD13_HIL3; HIL3 antibody) VH: QVQLVESGGGVVQPGRSLRLSCAASGFTFSDYGMIWVRQAPGKGLEWVASISSSSSYIYYADSVKGRFTISRDNSKNRLYLQMNSLRAEDTAVYYCARRYYGFNYPFDYWGQGTMVTVSS VL: DTQLTQSPSSLSASVGQRVTITCGASKSVRTYMHWYQQKPGKQPKLLIYSASNLEAGVPSRFSGSGSGTDFTLTISSLQPEDFATYYCQQSNEPPYTFGQGTKLEIKR",–,–,–,0.252 nM
